B1: ATGL (PNPLA2, patatin-like phospholipase domain-containing protein 2), human, full length / G0S2 (G0/G1 switch protein 2), human (parent)
chain 1: MFPREKTWNISFAGCGFLGVYYVGVASCLREHAPFLVANATHIYGASAGALTATALVTGVCLGEAGAKFIEVSKEARKRFLGPLHPSFNLVKIIRSFLLKVLPADSHEHASGRLGISLTRVSDGENVIISHFNSKDELIQANVCSGFIPVYCGLIPPSLQGVRYVDGGISDNLPLYELKNTITVSPFSGESDICPQDSSTNIHELRVTNTSIQFNLRNLYRLSKALFPPEPLVLREMCKQGYRDGLRFLQRNGLLNRPNPLLALPPARPHGPEDKDQAVESAQAEDYSQLPGEDHILEHLPARLNEALLEACVEPTDLLTTLSNMLPVRLATAMMVPYTLPLESALSFTIRLLEWLPDVPEDIRWMKEQTGSICQYLVMRAKRKLGRHLPSRLPEQVELRRVQSLPSVPLSCAAYREALPGWMRNNLSLGDALAKWEECQRQLLLGLFCTNVAFPPEALRMRAPADPAPAPADPASPQHQLAGPAPLLSTPAPEARPVIGALGL
chain 2: METVQELIPLAKEMMAQKRKGKMVKLYVLGSVLALFGVVLGLMETVCSPFTAARRLRDQEAAVAELQAALERQALQKQALQEKGKQQDTVLGGRALSNRQHAS

The variants in the experiment derive from B1. Kind of experiment: LUMIER: Protein A-ATGL variant and firefly luciferase-partner co-expressed in HEK293T, lysates immunoprecipitated on IgG-coated plates, co-precipitated partner measured as luciferase luminescence. The conditions noted are these: with G0S2 (G0/G1 switch protein 2), transient co-transfection, IgG-coated LUMITRAC plates, 2 h at 4 °C, three PBS washes, Bright-Glo luciferase reagent, triplicates per assay, two …, scale: log2 fold change of co-immunoprecipitated luminescence relative to wild-type ATGL within each experiment.

Turning to chain 1 MFPREKTWNISFAGCGFLGVYYVGVASCLREHAPFLVANATHIYGASAGALTATALVTGVCLGEAGAKFIEVSKEARKRFLGPLHPSFNLVKIIRSFLLKVKPADSHEHASGRLGISLTRVSDGENVIISHFNSKDELIQANVCSGFIPVYCGLIPPSLQGVRYVDGGISDNLPLYELKNTITVSPFSGESDICPQDSSTNIHELRVTNTSIQFNLRNLYRLSKALFPPEPLVLREMCKQGYRDGLRFLQRNGLLNRPNPLLALPPARPHGPEDKDQAVESAQAEDYSQLPGEDHILEHLPARLNEALLEACVEPTDLLTTLSNMLPVRLATAMMVPYTLPLESALSFTIRLLEWLPDVPEDIRWMKEQTGSICQYLVMRAKRKLGRHLPSRLPEQVELRRVQSLPSVPLSCAAYREALPGWMRNNLSLGDALAKWEECQRQLLLGLFCTNVAFPPEALRMRAPADPAPAPADPASPQHQLAGPAPLLSTPAPEARPVIGALGL [chain 1 L102K], the screen value (parent: 0.26, not graded) was -2.65 and the screen value (parent: 0.56, not graded) is -2.45.

As to chain 1 MFPREKTWNISFAGCGFLGVYYVGVASCLREHAPFLVANATHIYGASAGALTATALVTGVCLGEAGAKFIEVSKEARKRFLGPLHPSFNLVKIIRSFLLKVLPADSHEHASGRLGISLTRVSDGENVIISHFNSKDELIQANVCSGFIPVYCGLIPPSLQGVRYVDGGISDNLPLYELKNTITVSPFSGESDICPQDSSTNIHELRVTNTSIQFNLRNLYRLSKALFPPEPLVLREMCKQGYRDGLRFLQRNGLLNRPNPELALPPARPHGPEDKDQAVESAQAEDYSQLPGEDHILEHLPARLNEALLEACVEPTDLLTTLSNMLPVRLATAMMVPYTLPLESALSFTIRLLEWLPDVPEDIRWMKEQTGSICQYLVMRAKRKLGRHLPSRLPEQVELRRVQSLPSVPLSCAAYREALPGWMRNNLSLGDALAKWEECQRQLLLGLFCTNVAFPPEALRMRAPADPAPAPADPASPQHQLAGPAPLLSTPAPEARPVIGALGL [chain 1 L261E], the screen value runs as follows: (parent: 0.26, not graded) -0.622; (parent: 0.56, not graded) -0.673.

On to chain 1 MFPREKTWNISFAGCGFLGVYYVGVASCLREHAPFLVANATHIYGASAGALTATALVTGVCLGEAGAKFIEVSKEARKRFLGPLHPSFNLVKIIRSFLLKVLPADSHEHASGRLGISLTRVSDGENVIISHFNSKDELIQANVCSGFIPVYCGLIPPSLQGVRYVDGGISDNLPLYEAKNTITVSPFSGESDICPQDSSTNIHELRVTNTSIQFNLRNLYRLSKALFPPEPLVLREMCKQGYRDGLRFLQRNGLLNRPNPLLALPPARPHGPEDKDQAVESAQAEDYSQLPGEDHILEHLPARLNEALLEACVEPTDLLTTLSNMLPVRLATAMMVPYTLPLESALSFTIRLLEWLPDVPEDIRWMKEQTGSICQYLVMRAKRKLGRHLPSRLPEQVELRRVQSLPSVPLSCAAYREALPGWMRNNLSLGDALAKWEECQRQLLLGLFCTNVAFPPEALRMRAPADPAPAPADPASPQHQLAGPAPLLSTPAPEARPVIGALGL [chain 1 L178A], for which the screen value is, setting by setting: (parent: 0.26, not graded) -0.634; (parent: 0.56, not graded) 0.0997.

For chain 1 MFPREKTWNISFAGCGFLGVYYVGVASCLREHAPFLVANATHIYGASAGALTATALVTGVCLGEAGAKFIEVSKEARKRFLGPLHPSFNLVKIIRSFLLKVLPADSHEHASGRLGISLTRVSDGENVIISHFNSKDELIQANVCSGFIPVYCGLIPPSLQGVRYVDGGISDNLPLYELKLTITVSPFSGESDICPQDSSTNIHELRVTNTSIQFNLRNLYRLSKALFPPEPLVLREMCKQGYRDGLRFLQRNGLLNRPNPLLALPPARPHGPEDKDQAVESAQAEDYSQLPGEDHILEHLPARLNEALLEACVEPTDLLTTLSNMLPVRLATAMMVPYTLPLESALSFTIRLLEWLPDVPEDIRWMKEQTGSICQYLVMRAKRKLGRHLPSRLPEQVELRRVQSLPSVPLSCAAYREALPGWMRNNLSLGDALAKWEECQRQLLLGLFCTNVAFPPEALRMRAPADPAPAPADPASPQHQLAGPAPLLSTPAPEARPVIGALGL [chain 1 N180L], the screen value runs as follows: (parent: 0.26, not graded) -1.96; (parent: 0.56, not graded) -1.94.

Turning to chain 1 MFPREKTWNISFAGCGFLGVYYVGVASCLREHAPFLVAEATHIYGASAGALTATALVTGVCLGEAGAKFIEVSKEARKRFLGPLHPSFNLVKIIRSFLLKVLPADSHEHASGRLGISLTRVSDGENVIISHFNSKDELIQANVCSGFIPVYCGLIPPSLQGVRYVDGGISDNLPLYELKNTITVSPFSGESDICPQDSSTNIHELRVTNTSIQFNLRNLYRLSKALFPPEPLVLREMCKQGYRDGLRFLQRNGLLNRPNPLLALPPARPHGPEDKDQAVESAQAEDYSQLPGEDHILEHLPARLNEALLEACVEPTDLLTTLSNMLPVRLATAMMVPYTLPLESALSFTIRLLEWLPDVPEDIRWMKEQTGSICQYLVMRAKRKLGRHLPSRLPEQVELRRVQSLPSVPLSCAAYREALPGWMRNNLSLGDALAKWEECQRQLLLGLFCTNVAFPPEALRMRAPADPAPAPADPASPQHQLAGPAPLLSTPAPEARPVIGALGL [chain 1 N39E], the screen value reads like this: (parent: 0.26, not graded) -2.73; (parent: 0.56, not graded) -2.67.

In the case of chain 1 MFPREKTWNISFAGCGFLGVYYVGVASCLREHAPFLVANATHIYGASAGALTATALVTGVCLGEAGAKFIEVSKEARKRFLGPLHPSFNLVKIIRSFLLKVLPADSHEHASGRLGISLTRVSDGENVIISHFNSKDELIQANVCSGFIPVYCGLIPPSAQGVRYVDGGISDNLPLYELKNTITVSPFSGESDICPQDSSTNIHELRVTNTSIQFNLRNLYRLSKALFPPEPLVLREMCKQGYRDGLRFLQRNGLLNRPNPLLALPPARPHGPEDKDQAVESAQAEDYSQLPGEDHILEHLPARLNEALLEACVEPTDLLTTLSNMLPVRLATAMMVPYTLPLESALSFTIRLLEWLPDVPEDIRWMKEQTGSICQYLVMRAKRKLGRHLPSRLPEQVELRRVQSLPSVPLSCAAYREALPGWMRNNLSLGDALAKWEECQRQLLLGLFCTNVAFPPEALRMRAPADPAPAPADPASPQHQLAGPAPLLSTPAPEARPVIGALGL [chain 1 L159A], the screen value (parent: 0.26, not graded) was -0.413 and the screen value (parent: 0.56, not graded) was -0.671.

These data come from PMC10958042.
